According to the supplement of paper PMC7877785:
± gives the uncertainty stated by the source.

Experiment: self-splicing fitness, log relative to wild type (ln ratio); higher = more splicing; Tetrahymena group I intron in knt gene, E. coli kanamycin selection, DiMSum; sequences stand for … in CUCUCU…GGAGGGAAAAGUUAUCAGGCAUGCACCUGGUAGCUAGUCUUUAAACCAAUAGAUUGCAUCGGUUUAAAAGGCAAGACCGUCAAAUUGCGGGAAAGGGGUCAACAGCCGUUCAGUACCAAGUCUCAGGGGAAACUUUGAGAUGGCCUUGCAAAGGGUAUGGUAAUAAGCUGACGGACAUGGUCCUAACCACGCAGCCAAGUCCUAAGUCAACAGAUCUUCUGUUGAUAUGGAUGCAGUUCACAGACUAAAUGUCGGUCGGGGAAGAUGUAUUCUUCUCAUAAGAUAUAGUCGGACCUCUCCUUAAUGGGAGCUAGCGGAUGAAGUGAUGCAACACUGGAGCCGCUGGGAACUAAUUUGUAUGCGAAAGUAUAUUGAUUAGUUUUGGAGUACUCGUGGUCG
Summary of the method: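 Fitness was computed with DiMSum as the error-weighted combination of replicate fold changes, kanamycin versus none, each normalised to wild type. The library randomised all eight intron nucleotides of the P1ex region, with the intron placed in the knt kanamycin-resistance gene on pET-22b(+) in E. coli BL21(DE3). Six replicate transformations were grown overnight at 37°C or 30°C on LB agar with or without 25 μg/mL kanamycin, plus 100 μg/mL carbenicillin, 50 μM IPTG and 0.2% rhamnose. Pooled colonies were amplicon-sequenced on an Illumina HiSeq 2500.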

Sequence	self-splicing fitness (ln) (30 °C)	self-splicing fitness (ln) (37 °C)
CGCCAGCAAUAUUACGCACU	-2.23 ± 0.14	-1.47 ± 0.14
CGCCAGCAAUAUUACGCCGG	-3.13 ± 0.2	-3.21 ± 0.35
CGCCAGCAAUAUUACGCGGU	-3.04 ± 0.13	-3.3 ± 0.22
CGCCAGCAAUAUUACGCGUA	-2.72 ± 0.18	-2.31 ± 0.18
CGCCAGCAAUAUUACGCGUU	-2.03 ± 0.12	-2.31 ± 0.19
CGCCAGCAAUAUUACGCUAA	-2.34 ± 0.15	-1.29 ± 0.14
CGCCAGCAAUAUUACGCUGA	-3.51 ± 0.24	-2.24 ± 0.28
CGCCAGCAAUAUUACGGCCC	-2.2 ± 0.12	-0.207 ± 0.25
CGCCAGCAAUAUUACGGGUA	-0.998 ± 0.064	-0.377 ± 0.069
CGCCAGCAAUAUUACGGGUC	-2.81 ± 0.14	-2.6 ± 0.17
CGCCAGCAAUAUUACGGGUG	-4.13 ± 0.14	-2.58 ± 0.12
CGCCAGCAAUAUUACGGUCA	-0.14 ± 0.066	0.542 ± 0.092
CGCCAGCAAUAUUACGUAAC	-3.91 ± 0.24	-2.96 ± 0.28
CGCCAGCAAUAUUACGUAGU	-2.67 ± 0.1	-1.18 ± 0.11
CGCCAGCAAUAUUACGUCCG	-0.462 ± 0.1	-0.546 ± 0.12
CGCCAGCAAUAUUACGUUAA	-3.31 ± 0.22	-2.57 ± 0.17
CGCCAGCAAUAUUACGUUAU	-3.32 ± 0.16	-2.22 ± 0.18
CGCCAGCAAUAUUACGUUGC	-3.95 ± 0.29	-2.45 ± 0.22
CGCCAGCAAUAUUACGUUUC	-3.41 ± 0.12	-2.42 ± 0.24
CGCGAGCAAUAUUACGAAAG	-2.75 ± 0.26	-1.65 ± 0.23
CGCGAGCAAUAUUACGAACA	-3.27 ± 0.45	-1.19 ± 0.23
CGCGAGCAAUAUUACGACAC	-3.42 ± 0.49	-1.36 ± 0.41
CGCGAGCAAUAUUACGAUAC	-3.81 ± 0.3	-2.56 ± 0.28
CGCGAGCAAUAUUACGAUGG	-1.66 ± 0.12	-1.2 ± 0.14

Sequence	self-splicing fitness (ln) (30 °C)	self-splicing fitness (ln) (37 °C)
CGCGAGCAAUAUUACGAUGU	-3.79 ± 0.23	-2.74 ± 0.22
CGCGAGCAAUAUUACGCAUG	-2.48 ± 0.2	-2.14 ± 0.16
CGCGAGCAAUAUUACGCCUA		-2.42 ± 0.45
CGCGAGCAAUAUUACGCCUG	-2.95 ± 0.34	-1.99 ± 0.26
CGCGAGCAAUAUUACGCGAU	-3.96 ± 0.24	-3.09 ± 0.27
CGCGAGCAAUAUUACGCGGU	-3.56 ± 0.3	-2.79 ± 0.18
CGCGAGCAAUAUUACGCUAU	-3.44 ± 0.34	-2.2 ± 0.23
CGCGAGCAAUAUUACGCUUA	-2.27 ± 0.23	-1.97 ± 0.24
CGCGAGCAAUAUUACGGCAC		-1.87 ± 0.41
CGCGAGCAAUAUUACGGUAG	-1.19 ± 0.12	-0.901 ± 0.13
CGCGAGCAAUAUUACGGUGC		-2.47 ± 0.5
CGCGAGCAAUAUUACGGUGU	-3.91 ± 0.17	-2.34 ± 0.15
CGCGAGCAAUAUUACGUCCU		-1.69 ± 0.48
CGCGAGCAAUAUUACGUGAG	-4.51 ± 0.39	-2.54 ± 0.32
CGCGAGCAAUAUUACGUUCA	-2.43 ± 0.19	-1.5 ± 0.17
CGCGAGCAAUAUUACGUUUA	-3.98 ± 0.25	-3.3 ± 0.28
CGCUAGCAAUAUUACGAAAG	-1.17 ± 0.091	-0.395 ± 0.1
CGCUAGCAAUAUUACGAACC	-2.92 ± 0.2	-0.219 ± 0.16
CGCUAGCAAUAUUACGACAA	-2.04 ± 0.18	-1.83 ± 0.2
CGCUAGCAAUAUUACGACAU	-3.31 ± 0.022	-2.06 ± 0.036
CGCUAGCAAUAUUACGACCC	-0.616 ± 0.16	-0.956 ± 0.45
CGCUAGCAAUAUUACGACGG	-0.226 ± 0.11	0.553 ± 0.14
CGCUAGCAAUAUUACGACUC	-1.4 ± 0.1	-1.61 ± 0.15
CGCUAGCAAUAUUACGAGAC	-3.36 ± 0.12	-2.45 ± 0.13
